Earlier results in patent US20180228866A1, “COMPOSITIONS” (Sigmoid Pharma Limited, priority 2015, published 2018).

System: serum TNF-α, IFN-γ, IL-6
Conditions: within 1-4 hours after injection

Substance: OKT3: anti-CD3 mAb, administered as a systemic immunosuppressive agent during organ transplantation
- serum levels of proinflammatory cytokines such as TNF-α, IFN-γ, and IL-6: markedly elevated
